The values below are quoted from earlier work in paper PMC11276120.

For one series, the target named is PCNA (Homo sapiens) (UniProt P12004).
Series [1] concerns the target PCNA (Saccharomyces cerevisiae) (UniProt P15873). Briefly: NMR.

Chain of Rev1 BRCT (P12689 158-252): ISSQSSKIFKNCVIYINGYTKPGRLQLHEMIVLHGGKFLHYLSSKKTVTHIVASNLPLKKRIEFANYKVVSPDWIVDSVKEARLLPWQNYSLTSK
Chain of PCNA (Homo sapiens) (P12004 whole entry): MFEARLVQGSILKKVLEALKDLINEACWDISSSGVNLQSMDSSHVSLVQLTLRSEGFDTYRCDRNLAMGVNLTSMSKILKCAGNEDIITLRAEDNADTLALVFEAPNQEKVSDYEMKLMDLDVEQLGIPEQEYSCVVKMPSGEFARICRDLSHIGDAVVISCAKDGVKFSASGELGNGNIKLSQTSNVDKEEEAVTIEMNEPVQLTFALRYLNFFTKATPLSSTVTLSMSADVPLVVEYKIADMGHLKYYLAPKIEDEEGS
Chain of p21WAF1/CIP1 PIP-box (P38936 139-160): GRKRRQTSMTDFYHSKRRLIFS
Chain of PCNA (Saccharomyces cerevisiae) (P15873 whole entry): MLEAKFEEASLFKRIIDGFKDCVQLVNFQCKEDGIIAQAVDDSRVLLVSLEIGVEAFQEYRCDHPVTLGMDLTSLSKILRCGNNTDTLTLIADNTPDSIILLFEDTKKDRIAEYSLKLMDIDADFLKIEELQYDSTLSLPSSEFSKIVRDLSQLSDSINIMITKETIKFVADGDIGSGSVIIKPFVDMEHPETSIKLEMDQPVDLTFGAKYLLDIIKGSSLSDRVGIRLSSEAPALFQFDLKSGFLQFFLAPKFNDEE

For the substance “p21WAF1/CIP1 PIP-box (from UniProt P38936)”, in the series with PCNA (Homo sapiens), the equilibrium dissociation constant (Kd) was 0.08 µM.
For Rev1 BRCT (from UniProt P12689), the dissociation constant (Kd) in series [1] is 79 µM.

Broadly, the Kd is a measure of binding affinity in units of concentration.
